Laboratory results as given in the DeepSol protein solubility set.

Assay: soluble on expression in E. coli; label from the status in PepcDB or PDB records

Sequence	soluble on expression in E. coli
MAHHHHHHMSQKNKKVYDTQNEQENTNSSSNSSSNSDKEIQKDKEEYKKGENNFSILNVEEVNIIELSREELYKVCAELQQKELEALKYIYVLDSELNIKYENDEDKLTIVEINLNDQNISNNHINFTFELPKDYPLGSISIINVTVKNFTPDTNNYINEEVYRYLQRYNEQRECILPVIYKVNEIIENIIQYKEEPGEKSLSSSTEGRSDFDQEQTFNEWDNKNKQRKADIVCFPELSYSMNFSKRPNILARRLCYSHHILSLVKRSCIIKWAKQLKIGGYSKIGYPGIIVCEGPKDEVDFYINSLNKLRWKHFDCRGMEDIELDENENLDDARVLPTTVRELDAKSMRTLSDICTQCGLRDLFLTSMKIYNNNDKKGSVKEKNKNGEENKPGNTKDILKEKGKKKKKRSSK	not soluble
MEVKAFLERETLDRTLGVRYLKAEKDEVVAELVVTPKVHQPFGFLHGGATVALAESVASVGGFLNCPPGHAAFGLEINCNHLRKKREGTIRAVGRPLHVGRTTQVWEVKVYDEEGRLVAASRCTLAVVPLEPAKEPA	soluble
MTKSQIMDLSNFYQDTDYPSGRLIALLILSLGLTPAEIANLKKADFDTTFNILSIEKSQMKRILKLPEDLLPFLLESLEEDGDLVFEHNGKPYSRQWFFNQLTDFLNEKNEQQLTAQLLREQFILKQKENGKTMTELSRLLGLKTPITLERYYRLEHHHHHH	not soluble
MGSDKIHHHHHHVNFRDLGGYPVGDGRRTRWGRLFRSDSLGALTEEDLALVAALDLYRVVDFRLPHERELHPNRLPVGAGPKVTEIGFWPDGVPEMLKALRELRIDAAGIERAVTGHYRRYAVHHRAEYRRMLEAVEEAAGRPTLIHCVSGKDRTGFGAAVILMALGVPRTVIVEDYLLTNDCRRDIGHLMPSGTTESVAEAFTAARPAYIEAAFESIDTAFGGIDDYLAHGLGFGEQRLQRLRECLTEPATGSASLLSPRRAGNP	not soluble
MGHHHHHHSHMLRILKKDCALTGGEVTLANQTKIFYVIKAPSLCSLVGSPSSDSVTSQELFKTFPCETPLSMPLVSTSNPLLSIVRLMVSPKPYDLTGVLCFGEDHETHYILRRVAKILTMTQEELDTICDIELHFSSNETLSSNRVPSRLTESIFPGLVPTVHFPQNMILSRGFFTGGNGPIIKHVAQTHHLTSDFVARVFYALKTPQAHAPGAAQLYRGLQIMNHAHNGLDFFPSDSDINDMQQMFLKHVLLSRKGTDSCAQMFFQAYLPVAPEVLGPEVIERVELALAKIELFANNTVFCMSTISTIVRPRIQVTTSANIKYIRMANKYFTMFPPINKDTAVIFGAAVLDQICKETPIREIVLVLRKYAHVVRRPHTPTIKLYTVLTL	not soluble
MVWSAFLHFYQIGNSGSNAYYTAAAKSMAASWKAFFFAALDPAGFITVDKPPVALWLQALSVKVFGVSDFSVLLPEALAADCIRGRAVWFACAAGVLVVDARVGRDKQHDSVCRTGFASGRSGHAGCWDAGGARWALAGRAKHRAAEDGNRLRDNSSLAALVVYLEQHAGKAKYLAATIRATEAAEMMLHTDRAVMAMGGFGGTDPVLTPEKLEQMAQNGEVKYFLLSGEDRGNNELVQWIQTHCKEVPSSQWGGGQSAAIGGMGRGGMTLYVYNG	not soluble
MGSDKIHHHHHHMPQGKANPFNINTSVKNGTVAKVGSISPTSFLNSVDPNATEVDVGGEPFNQKEFLELALNDDFLKGLLLDEEGNIKPEVAGEATIQGLEQWHQNDAGLEVDDTDTLGLMFNYYLNDNVSLQFIGGIPPKVDIKGQGEILAPLSGVALSPNELVKILFPNGITLGQAVPITNLGNKPKAASVRAWTPAIEAQYQFGKSGVNKFRPYLGVGLMYAHFNDIKLNDEIRSDLISAGHMIQNVLDGKAGAALDRKESSGNMVVKVDADDAIAPIFTAGFTYDFNDSWYTVASVSYAKLNNRTQIDVINQNTGARLIHGSTKVDIDPIITYLGVGYRF	not soluble
MGSDKIHHHHHHMLQLTQVRIWVITFKSYLRMNKNMIKGMIVFATIAEKGSMSAAAQQLNLSSSAVSQQVTKLEMDMGISLFHRNTRNLTLTEAGSLFYENCRKVISIVDSTEQKLNNLKGIPSGELKIAAPVGFGGGLLSEPFQYLLATHPQISLNLVMQDGPIDIVNDGIDLAICIGPLSDSNLIARHLADWRMLLCTSPDYLPMHHNIKHPSELAAFNRINHNYTKGELLTHHPSLECFELTGQRISVNNMQTLIQLTLDGLGYAALPEPEVLDYLDKGVLVPLLPEWSFNTYSVYSVTSARDRQPAKVKEALNALSQYFSQTDFNHADQLKGGSYQTEHIKSGKEHRLGT	not soluble
MLLFLTIILILVGGCTPKTKEVVLKNRNYVVIKEGKPALSEEDIIKLSRSLYVNKVNRPEVLRALKSLLTKRESLKYAFYRMKLYENIIVPILRSYGLPEEFKYLPIVESMYNPFAVSRSGAAGIWQLMPQTARRYGLIVRKDYDERFDVVKSTHAAAKYLRDLLEEFKNLELVLAAYNCGENCIRRNVNYNFWKERRKLPKETQNYVPLFLATLLIAQNPEYYGIHLYEPSREIAIVKVGIPMSVEDFLIMYSMNESRFRDLNPHIRGRKIPKNANVYVEERKLVKGEYLLRARGREE	not soluble
MGSDKIHHHHHHMETLELQGAKLRYHQVGQGPVLIFIPGANGTGNIFLPLAEQLKDHFTVVAVDRRDYGESELTEPLPDSASNPDSDYRVKRDAQDIAELAKSLSDEPVYILGSSSGSIVAMHVLKDYPEVVKKIAFHEPPINTFLPDSTYWKDKNDDIVHQILTEGLEKGMKTFGETLNIAPIDAKMMSQPADTEEGRIEQYKRTMFWSEFEIRQYTHSDITLDDFTKYSDKITLLNGTDSRGSFPQDVNFYINKETGIPIVDIPGGHLGYIQKPEGFADVLLNMWG	not soluble
MVGLSTGSWVKVLTSMPNLESITVVELNPAYVQLASSYPAMADLLKDNRVNIITDDGRRWLNKNPDQKFDLILMNTTFHWRNYATNLLSQQFLTVTKQHLTDNGFIYFNTTDALDAYKTSQAVFPHVYAYENMSLASLKPIAVPTTPEVHRALANLKWHDGRHIFNSPAEIAEGTARIVNTPLIPYKDIDFSPLKRPAKIITDTNMITEYKYGRLNTVINK	not soluble
MKNPQSKADDILQCARTLIIRGGYNSFSYADISQVVGIRNASIHHHFPSKSDLVCKLVSQYRQEAEAGIAELEKNISDPLEQLRAYIGYWEGCIADATHPFCVCALLASEIPVLPETVVLEVRAHFRSLSDWLTAVLERGIAQGRLVLTGTARANAEIFMATVHGAMLSARAHGDAATFGAITRPMLERITA	soluble
MSLVQLYVSDSVSRISFADGRVIVWSEELGESQYPIETLDGITLFGRPTMTTPFIVEMLKRERDIQLFTTDGHYQGRISTPDVSYAPRLRQQVHRTDDPAFCLSLSKRIVSRKILNQQALIRAHTSGQDVAESIRTMKHSLAWVDRSGSLAELNGFEGNAAKAYFTALGHLVPQEFAFQGRSTRPPLDAFNSMVSLGYSLLYKNIIGAIERHSLNAYIGFLHQDSRGHATLASDLMEVWRAPIIDDTVLRLIADGVVDTRAFSKNSDTGAVFATREATRSIARAFGNRIARTATYIKGDPHRYTFQYALDLQLQSLVRVIEAEGHHHHHH	not soluble
MLHKEKPDYNRNQYGFYTLDQLVPDEHFLRQVEAVIDFDFIYDLVEDTYSSDNGRPSLDPVMLVKIPLIQCFYGIRSMRQTIKDIEVNTAYRWFLGLTLDDKVPHFTTYGKNYSRRFQEKGLIESIFTHIVGLCINTGLIDPTEIFIDGTHIKAAANNRKFINREVEKQAKFMSEQLEIEINRDREKHGKKPLGPAKELEPVAKKISTTDPESGWFHKGDHKEVFAYSAQVACDKYGWALAYSVEAGNIHDSQAFPALFAKLEPLKPQFIIADSGYNVPSIAKFLIDKEITPVLPYTRPRGKKDLLRPKELIYDEHFDCVICPEHQALTYRTTTREGYREYKSDPVICANCPLLSVCTTSKNYQKVVTRHIWKDYLAQPRNTTISAIRERKASPKWKIRLD	not soluble
MKKGLTFSITSAALFFGMNHVASADQIHTVKEDAKLTDIAQTFATTTTEIQNLNHLQNRDYVQVGETIVLPDSDIVEVKDGDTIKAIAERHQMTMNQLYQLNPNLGEVIYPGQLVAVSEKGSAHLNNQLQQIFNSHEAVQPTAQINDDERNKAENNTIRNVRTSGNITPSATQTWQNNDYSASDRQQVSNTTANEQVTSNYQYSPVSHASNGSNYYDWGQCTYYAFDRRQQLGKSVGNLWGNANNWASAAQQSGYQVNNTPEVGAIFQSTAGNYGHVGVVESKNADGSIVVSEMNWQGVGQKSYRTIHNTGQYNYIHLEHHHHHH	not soluble
MGSDKIHHHHHHMNVHKIVWQEGMLLRPQHLQHNDRYYDNQMKARTQLLGSYNWGFLALELDRQFLNMGKLVISQASGVLPDGSLFELGGNTEPLALDVPPNTSNVPIYLALPLVTGNHIEARRPEQAEVLARYTAYDLEVADSNAGEDSMVQVSCARPDFRLLLGEQQSDQAYVKLKVAVVLDSTPDGVISLDPDFVPSYLHAHASAYLLSCLKEVISMLGHRGDTIAERIRSNGKVGGAEVGDFMMLQLINRTELLLRHYLGLEQVHPEQLYRVLLTMLGDLATFGSESKRPRLDSRYQHSDQGASFRRLMEAIRQVLSMVLEQHAIELPLQARQYGILVSPLHDHKLLGSASFVLAASANCESEELRQRLPAHLKVGAVEHIRQLVNLHLPGIRVKPLPVAPRQIPFHSNKTYFILEPNAEDMAQLERSGGFAFHVSGEFSELELKFWAIRN	not soluble
MGSDKIHHHHHHMITEKVLSYKSPLYGRRTGSLKLRPMNFFTLREFFPSCSWEELVEIYGMTDGIPFYIIQVKPPFWELLEEELKNPISFFKDEVDFLLRYEFSEVTTYKRILEAIALGKTTLKEIKDFTGLRNSDITPYLRNLIEADLIVREVPITEKKTSKKGRYYVLDNFLAFWFRFIYPNLSRIEEGIFNVDEIKGEYPRYLGWVFEKIARQFLIELNKINKLPFKFEKIGRWWYKEEEIDIVALNEREKKGLLVEVKWKTLKEREAREILEVLNKKSKLLGLEGWEKYYGLIAREIKRKEPLIEDGYLVWDLEDFEEIVKQKSREGL	not soluble
MKVGVIGASEMAGSAIYKLAKQNLEIDVTGIVRHESKAKKVLGDDAKLIVGDIFALSDNILDKFDVIIDAFGTDPKNAEEHVILAKKLINLVRKNKIRVIFILGAGSLHTGDDEHLVVDDIAQMDNADTWINTPRQQLKELEYLNSIDDVDWLGISPALQFEAGPATEYIEGTDELLYNKDGDSKLTSGTMATVVIKETVDSVHHQERITIANALEHHHHHH	soluble
SLDMIRIDSQTNSSHLKDEFQTLNSVTPRLQAEDCSIACLPRNHDKNRFMDMLPPDRCLPFLITIDGESSNYINAALMDSYRQPAAFIVTQYPLPNTVKDFWRLVYDYGCTSIVMLNEVDLSQGCPQYWPEEGMLRYGPIQVECMSCSMDCDVINRIFRICNLTRPQEGYLMVQQFQYLGWASHREVPGSKRSFLKLILQVEKWQEECEEGEGRTIIHCLNGGGRSGMFCAIGIVVEMVKRQNVVDVFHAVKTLRNSKPNMVEAPEQYRFCYDVALEYLESS	not soluble
MSELIKHSSNFLAAISPDNDCSITATNDFEAMMSWLNGYKKKPINTSRNYAREVKRYLIWLSCQGLTLAQVKIEDVYEYFNLLERPTTEWIIPDKKTDKIYPTQLIKYGGLSNRSINYTHTVLGLFYSFLQDAGYLTKNPINLVKKALEHHHHHH	not soluble
